B1: Transducer of Cdc42-dependent actin assembly protein 2 homolog (Caenorhabditis elegans), Q9XUS7 (parent)
chain: MIPVSRFFTVQDPSNALLSYTQKGIDFFEKLGQFSKEKAAIEEEYSTKLRSLAKKYAKKSEEDDEILKSVSYTSSFNSFLQQLDQIATRHQTSAEHIRGGVVSYVASKTCQMRSSRKNAINDLKTINDKLEDQINEMCKSGKCYLKSFKDAENSYQKFYKADKNLEISRLELEKARALANARNEACELAKQDYSALVRKTNAEQKRYHVELLPVIFARLKAVDKECIADMRQVLQKIVSFDDSLADSTEECRKIMQREVGKIDAEGDAQLVLKSVEATIEQPAPFEIEDLGDPKNCDSRTNDSADGSGGKLLKSSPSKNRIIRNFLGILKEKEADEKPEASNNDQLMYTDKSKPAHVRLSCLRSKIRDMEKQLEQAIQGREGITRLQQAYYTNPQHGNPSACTEPLISYAKKIEKLKMDIHNLKEFYAMLEMSVEEGQERSFGGRDTPDTTRSMSGSSTNQSSSKTIEDVLSGEAGNSSSADDSSKNILRQLFTTPKRLISSPKTSKSSTPTPLRRRAEISSPKILRSSFSGAIRKSLSTPDSVKVETAVTVTALFEFAKSSAETMSIEQGEILLVLEHDHGDGWTRTKNCRKHNEESGFVPTSYLQFPQ

Variants of: B1
Conditions: with cdc42_caeel cdc-42, Q05062
cdc42_caeel cdc-42, Q05062, sequence (Q05062 whole entry): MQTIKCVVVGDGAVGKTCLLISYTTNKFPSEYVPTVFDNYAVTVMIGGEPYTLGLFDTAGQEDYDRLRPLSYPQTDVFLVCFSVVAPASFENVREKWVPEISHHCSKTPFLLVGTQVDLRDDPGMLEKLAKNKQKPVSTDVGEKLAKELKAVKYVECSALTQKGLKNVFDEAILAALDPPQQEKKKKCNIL

Variant	effect of a mutation on the interaction
I413S	disrupting interaction strength

Reference: IntAct's records for PubMed 25775511
